Data set [1] addresses hNup35(173-248, the RRM domain) (human, UniProt Q8NFH5). The data set is described as follows: crystal structure.
Data set [2] concerns the target human Nup35 in NPCs of HeLa cells (Homo sapiens (HeLa), UniProt Q8NFH5). As to the kind of experiment: immunostaining of cells or tissue.
The target in data set [3] is Xenopus Nup35 from egg extract, in newly assembled NPCs (Xenopus laevis, UniProt I1VEB0). The data set is described as follows: immunostaining of cells or tissue.
The target of data set [4] is His14-NEDD8 tagged APD of xtNup98(715-866) (Xenopus tropicalis, UniProt A0A1B8XZT4). As to the kind of experiment: pull-down.
Data set [5] deals with T1, human Nup98 of HeLa cells (human (endogenous in HeLa), UniProt P52948). The data set is described as follows: pull-down.
T1 sequence (P52948 1-880): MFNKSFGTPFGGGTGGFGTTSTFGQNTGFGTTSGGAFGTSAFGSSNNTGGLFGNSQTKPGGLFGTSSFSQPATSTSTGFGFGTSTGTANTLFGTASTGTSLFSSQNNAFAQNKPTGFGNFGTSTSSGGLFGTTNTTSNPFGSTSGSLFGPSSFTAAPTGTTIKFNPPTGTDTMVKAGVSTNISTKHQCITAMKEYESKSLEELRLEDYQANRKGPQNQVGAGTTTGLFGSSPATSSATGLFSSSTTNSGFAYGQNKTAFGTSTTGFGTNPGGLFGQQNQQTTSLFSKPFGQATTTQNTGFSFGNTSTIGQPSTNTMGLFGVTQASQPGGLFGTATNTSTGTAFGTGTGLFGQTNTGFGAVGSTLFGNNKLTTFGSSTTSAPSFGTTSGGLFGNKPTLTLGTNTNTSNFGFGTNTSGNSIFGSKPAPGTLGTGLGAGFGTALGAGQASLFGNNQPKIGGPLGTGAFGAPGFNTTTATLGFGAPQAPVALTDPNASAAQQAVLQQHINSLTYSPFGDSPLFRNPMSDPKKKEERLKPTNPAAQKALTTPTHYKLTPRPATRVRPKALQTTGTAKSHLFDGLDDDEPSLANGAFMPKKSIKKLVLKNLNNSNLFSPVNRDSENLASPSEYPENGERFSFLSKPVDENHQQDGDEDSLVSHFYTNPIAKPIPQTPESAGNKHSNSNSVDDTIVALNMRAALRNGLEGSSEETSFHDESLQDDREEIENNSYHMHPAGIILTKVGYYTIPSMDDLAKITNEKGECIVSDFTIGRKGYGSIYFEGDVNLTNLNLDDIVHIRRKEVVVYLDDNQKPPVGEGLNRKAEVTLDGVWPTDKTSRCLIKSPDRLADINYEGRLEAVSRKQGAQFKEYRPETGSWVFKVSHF
Data set [6] concerns the target T2, Xenopus Nup98 from egg extract (Xenopus laevis, endogenous in egg …, UniProt A0A8J1MFV7). As to the kind of experiment: pull-down.
For data set [7], the target named is xlNup93(168-820) (Xenopus laevis, UniProt Q7ZX96). As to the kind of experiment: cryo-EM structure.
Chain of xlNup93(168-820) (Q7ZX96 168-820): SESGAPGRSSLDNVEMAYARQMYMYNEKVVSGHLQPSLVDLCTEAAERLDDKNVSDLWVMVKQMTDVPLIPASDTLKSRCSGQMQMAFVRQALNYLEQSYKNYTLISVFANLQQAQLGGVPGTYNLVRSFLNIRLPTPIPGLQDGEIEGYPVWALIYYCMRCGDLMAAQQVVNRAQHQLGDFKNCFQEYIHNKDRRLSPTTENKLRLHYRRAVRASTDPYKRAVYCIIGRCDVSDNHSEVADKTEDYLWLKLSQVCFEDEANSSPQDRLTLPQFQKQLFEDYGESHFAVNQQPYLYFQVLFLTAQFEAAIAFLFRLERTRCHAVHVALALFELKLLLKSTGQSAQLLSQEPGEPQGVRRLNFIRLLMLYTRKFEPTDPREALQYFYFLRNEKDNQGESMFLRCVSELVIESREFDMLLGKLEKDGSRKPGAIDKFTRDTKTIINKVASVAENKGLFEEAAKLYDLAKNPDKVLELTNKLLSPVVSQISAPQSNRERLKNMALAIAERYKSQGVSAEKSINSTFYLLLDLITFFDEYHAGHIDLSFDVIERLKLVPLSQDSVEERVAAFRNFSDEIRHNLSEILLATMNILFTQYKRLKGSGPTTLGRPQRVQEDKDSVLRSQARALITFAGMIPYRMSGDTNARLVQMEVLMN
Data set [8] addresses T1, human Nup98 of HeLa cells. The data set is described as follows: immunostaining of cells or tissue.
The target of data set [9] is T2, Xenopus Nup98 from egg extract. As to the kind of experiment: immunostaining of cells or tissue.
Data set [10] deals with the molecule itself. As to the kind of experiment: crystal structure.
Data set [11] concerns the target Xenopus Nup93, target protein of the BLI measurement (Xenopus, UniProt Q7ZX96). As to the kind of experiment: BLI. For orientation: Biolayer interferometry detects binding as a change in optical thickness at a sensor tip.
The target of data set [12] is human Nup93 from HeLa lysate (human (endogenous in HeLa), UniProt Q8N1F7). The data set is described as follows: pull-down.
Chain of human Nup93 from HeLa lysate (Q8N1F7 whole entry): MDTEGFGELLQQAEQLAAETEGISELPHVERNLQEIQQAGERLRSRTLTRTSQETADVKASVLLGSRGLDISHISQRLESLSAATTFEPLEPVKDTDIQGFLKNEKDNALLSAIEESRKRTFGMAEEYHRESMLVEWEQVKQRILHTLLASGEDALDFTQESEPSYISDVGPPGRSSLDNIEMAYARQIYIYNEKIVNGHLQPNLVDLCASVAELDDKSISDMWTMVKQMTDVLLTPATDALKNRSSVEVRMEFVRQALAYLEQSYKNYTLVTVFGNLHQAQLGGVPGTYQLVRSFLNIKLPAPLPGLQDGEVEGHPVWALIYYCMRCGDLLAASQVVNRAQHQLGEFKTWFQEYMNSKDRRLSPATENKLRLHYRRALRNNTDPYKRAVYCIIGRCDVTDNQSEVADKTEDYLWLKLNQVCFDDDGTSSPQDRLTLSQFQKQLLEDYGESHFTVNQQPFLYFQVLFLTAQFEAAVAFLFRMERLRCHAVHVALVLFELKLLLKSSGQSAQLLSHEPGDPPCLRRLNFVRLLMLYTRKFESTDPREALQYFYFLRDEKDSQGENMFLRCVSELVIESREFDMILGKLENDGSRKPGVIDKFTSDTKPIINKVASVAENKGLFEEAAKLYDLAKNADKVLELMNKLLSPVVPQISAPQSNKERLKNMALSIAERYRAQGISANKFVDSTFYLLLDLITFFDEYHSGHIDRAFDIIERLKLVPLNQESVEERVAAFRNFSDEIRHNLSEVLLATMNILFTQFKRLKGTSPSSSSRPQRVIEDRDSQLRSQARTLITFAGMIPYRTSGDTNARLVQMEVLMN
Data set [13] addresses Xenopus Nup93 from egg extract (Xenopus laevis (endogenous in egg …, UniProt Q7ZX96)). The data set is described as follows: pull-down.

Chain of human Nup35 in NPCs of HeLa cells (Q8NFH5 whole entry): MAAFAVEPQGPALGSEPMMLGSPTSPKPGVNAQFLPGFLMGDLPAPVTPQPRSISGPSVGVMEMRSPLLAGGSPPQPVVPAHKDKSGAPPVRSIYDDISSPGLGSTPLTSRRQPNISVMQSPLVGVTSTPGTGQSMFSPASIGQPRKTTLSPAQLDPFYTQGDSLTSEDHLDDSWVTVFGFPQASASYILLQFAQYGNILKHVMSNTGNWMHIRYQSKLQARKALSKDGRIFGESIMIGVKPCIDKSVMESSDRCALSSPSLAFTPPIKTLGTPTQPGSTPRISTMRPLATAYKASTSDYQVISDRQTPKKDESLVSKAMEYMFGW
Chain of Xenopus Nup93 from egg extract (Xenopus laevis (Q7ZX96 whole entry): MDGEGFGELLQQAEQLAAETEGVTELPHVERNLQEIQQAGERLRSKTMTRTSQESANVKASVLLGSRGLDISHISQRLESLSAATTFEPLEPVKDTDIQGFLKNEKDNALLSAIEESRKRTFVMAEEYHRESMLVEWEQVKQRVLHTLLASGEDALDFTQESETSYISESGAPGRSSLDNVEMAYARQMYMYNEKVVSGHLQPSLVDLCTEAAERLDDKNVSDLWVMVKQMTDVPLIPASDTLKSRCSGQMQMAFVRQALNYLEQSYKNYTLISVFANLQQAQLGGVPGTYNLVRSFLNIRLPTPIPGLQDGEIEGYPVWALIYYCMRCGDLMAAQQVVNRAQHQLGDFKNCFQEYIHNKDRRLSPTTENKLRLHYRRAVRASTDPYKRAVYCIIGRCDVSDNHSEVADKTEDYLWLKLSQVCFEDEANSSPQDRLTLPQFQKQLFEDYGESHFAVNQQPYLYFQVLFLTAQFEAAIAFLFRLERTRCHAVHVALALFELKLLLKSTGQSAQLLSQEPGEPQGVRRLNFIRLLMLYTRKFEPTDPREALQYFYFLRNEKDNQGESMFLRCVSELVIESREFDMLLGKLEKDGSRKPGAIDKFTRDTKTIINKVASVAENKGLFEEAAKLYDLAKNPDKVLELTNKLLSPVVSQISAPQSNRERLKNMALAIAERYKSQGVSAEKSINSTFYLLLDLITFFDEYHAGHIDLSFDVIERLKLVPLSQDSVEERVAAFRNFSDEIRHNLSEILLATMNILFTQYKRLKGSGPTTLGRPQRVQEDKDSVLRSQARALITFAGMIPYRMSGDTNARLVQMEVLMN
Chain of Xenopus Nup93, target protein of the BLI measurement (Q7ZX96 whole entry): as above

B1: xhNup35-Nb1t (VHH)
VHH: QVQLVESGGGLVQAGGSLRLSCVGTGNISSAYTMAWYRQAAGKEREVVAGILNGGSTHYADSVKGRFTISRDNAKNTVYLQMNSLQPEDTGVYCCHVVIESTRFVYDHYWGQGTRVTVSS
On to B1, for which, in [1], the binding result is given as “binds”.

B2: xhNup35-Nb1t, fluorophore-labelled (VHH)
VHH: QVQLVESGGGLVQAGGSLRLSCVGTGNISSAYTMAWYRQAAGKEREVVAGILNGGSTHYADSVKGRFTISRDNAKNTVYLQMNSLQPEDTGVYCCHVVIESTRFVYDHYWGQGTRVTVSS
B2: the binding result in data set [2] and in data set [3] was “binds” each time.

B3: xhNup98-Nb2i (VHH)
VHH: QVQLVESGGGLAKPGGSLRLSCVATGTFRSMEDVGWYRQAPGKDRELVAEITTLGKVTYADSVKGRFTISRDDAKNAVYLQMSDLKSEDTAVYYCNIEADQTKGIGYVVYPYWGQGTRVTVSS
Consider B3, for which the binding result in data set [4] is “binds”.

B4: (biotin)-Avi-SUMO^Eu1-xhNup98-Nb2i (VHH)
VHH: QVQLVESGGGLAKPGGSLRLSCVATGTFRSMEDVGWYRQAPGKDRELVAEITTLGKVTYADSVKGRFTISRDDAKNAVYLQMSDLKSEDTAVYYCNIEADQTKGIGYVVYPYWGQGTRVTVSS
With B4, the binding result in data set [5] and in data set [6] was “binds” each time.

B5: xNup93-Nb2t (VHH)
VHH: DVQLVESGGGLVQPGGSLRLSCVASGFTFSRVGMGWVRQAPGKGLEWVSDINASGGTGYADSVKGRFAISRDNAKNTLYLQMNRLKPEDTAVYYCAKMMDTAMIEAGIIKPAGQGTQVTVSS
B5: the binding result in data set [7] is given as “binds”.

B6: xNup98-Nb1t (VHH)
VHH: QVQLVESGGGPVEAGGSLRLSCAASGRSFSNSVMAWFRQAPGKEREFLSVLNWSSGRTSIADSVKGRFTMSRDPAKITVYLQMNGLKPEDTAVYYCAASNRGSLYTLDNQNRYEDWGQGTQVTVSS
On to B6, for which the binding result in data set [4] is “binds”.

B7: xNup98-Nb1t, fluorophore-labelled (VHH)
VHH: QVQLVESGGGPVEAGGSLRLSCAASGRSFSNSVMAWFRQAPGKEREFLSVLNWSSGRTSIADSVKGRFTMSRDPAKITVYLQMNGLKPEDTAVYYCAASNRGSLYTLDNQNRYEDWGQGTQVTVSS
Regarding B7, the binding result in [8] is listed as “no binding (tested: 35 nM)”; in data set [9] it was “binds”.

B8: hNup35(173-248, the RRM domain) (domain or fragment)
chain: DSWVTVFGFPQASASYILLQFAQYGNILKHVMSNTGNWMHIRYQSKLQARKALSKDGRIFGESIMIGVKPCIDKSV
B8: the binding result in data set [10] is reported as “binds”.

B9: xhNup93-Nb4i, biotinylated at two ectopic cysteines (VHH)
VHH: QVQLVESGGGVVQTGDSLMLSCTVSGHTIDNWAMGWFRQTPRKQREFVAAIDKRGTGAIYGNSVKGRFTVSRDNAKNMVYLRMNSLKPEDTAVYFCAVDQLNAGLGDVSYDYDYWGQGTQVTVSS
For the molecule B9, the binding result in data set [11] was “binds”.

B10: (biotin)-Avi-SUMO^Eu1-xhNup93-Nb4i (VHH)
VHH: QVQLVESGGGVVQTGDSLMLSCTVSGHTIDNWAMGWFRQTPRKQREFVAAIDKRGTGAIYGNSVKGRFTVSRDNAKNMVYLRMNSLKPEDTAVYFCAVDQLNAGLGDVSYDYDYWGQGTQVTVSS
In the case of B10, the binding result in data set [12] and in data set [13] was “binds” throughout.

B11: xhNup93-Nb4i (VHH)
VHH: QVQLVESGGGVVQTGDSLMLSCTVSGHTIDNWAMGWFRQTPRKQREFVAAIDKRGTGAIYGNSVKGRFTVSRDNAKNMVYLRMNSLKPEDTAVYFCAVDQLNAGLGDVSYDYDYWGQGTQVTVSS
Take B11: the binding result in data set [7] was “binds”.

The values are drawn from article doi:10.1101/2023.09.12.557426 (bioRxiv, 2023).
